The experiment has as its target recombinant full-length hemagglutinin H6 (A/Taiwan/2/2013) (Influenza A virus A/Taiwan/2/2013 (H6N1), strain). In words: BLI. As to conditions: both partners purified.

Experimental findings from publication PMC7835374 (Nature Communications, 2021) are described below.

Broadly, the Kd is the constant that tells how readily two partners part at equilibrium. A word on the koff: it is a measure of how fast the partners let go of each other. The term kon denotes a measure of how fast the partners come together.

B1: 3I14 IgG1 (wild type) (antibody, V domains shown)
VH: QVQLLESGGGVVQPGRSLRLSCAASGFTFSNYGMHWVRQAPGKGLEWVAIISFDGSKKYYANSVKGRSTISRDNSKNTLSLQMNSLGPEDTALYYCAKLPSPYYFDSRFVWVAASAFHFWGQGILVTVSS
VL: NFMLTQPPSASGTPGQRVTISCSGSSSNIGGNTVHWFQQLPGTAPKLLIYTNSLRPSGVPDRFSGSKSGTSASLAISGLQSEDEADYYCAAWDDSLNGQVFGGGTKLTVL
notes: copies: 2 + 2
Regarding B1, the Kd worked out at 2.9 nM, the dissociation rate constant (koff) worked out at 0.000152 s⁻¹ and the kon worked out at 51900 M⁻¹ s⁻¹.
